# From patent US20030044896
# Positions count from the first letter of the chain named.
# T1: Mas-DH+Gly (42 amino acid precursor of Manduca sexta diuretic hormone)
# T1 chain: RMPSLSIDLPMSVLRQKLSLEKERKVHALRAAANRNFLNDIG
# T2: Mas-DH[K22Q]+Gly
# T2 chain: T1 chain with K22Q
# B1: Mkc7 endoprotease (encoded by MKC7) (protein)
# chain: DDDYELVELTNQNSFYSVELDIGTPPQKVTVLVDTGSSDLWVTGSDNPYCSTKKKDTTGSSFKQVNKDALASVVESVFTEISYDTTIVTSEATATFDSTASTSQLIDCATYGTFNTSKSSTFNSNNTEFSIAYGDTTFASGTWGHDQLSLNDLNITGLSFAVANETNSTVGVLGIGLPGLESTYSGVSLSSVQKSYTYNNFPMVLKNSGVIKSTAYSLFANDSDSKHGTILFGAVDHGKYAGDLYTIPIINTLQHRGYKDPIQFQVTLQGLGTSKGDKEDNLTTLTTTKIPVLLDSGTTISYMPTELVKMLADQVGATYSSAYGYYIMDCIKEMEEESSIIFDFGGFYLSNWLSDFQLVTDSRSNICILGIAPQSDPTIILGDNFLANTYVVYDLDNMEISMAQANFSDDGEYIEIIESAVPSALKAPGYSSTWSTYESIVSGGNMFSTAANSSISYFASTSHSATSSSSSKGQKTQTSTTALSISKSTSSTSSTGMLSPTSSSSTRKEN
# B2: Yap3 endoprotease (Yeast Aspartyl Protease 3, encoded by YAP3) (protein)
# chain: ADGYEEIIITNQQSFYSVDLEVGTPPQNVTVLVDTGSSDLWIMGSDNPYCSSNSMGSSRRRVIDKRDDSSSGGSLINDINPFGWLTGTGSAIGPTATGLGGGSGTATQSVPASEATMDCQQYGTFSTSGSSTFRSNNTYFSISYGDGTFASGTFGTDVLDLSDLNVTGLSFAVANETNSTMGVLGIGLPELEVTYSGSTASHSGKAYKYDNFPIVLKNSGAIKSNTYSLYLNDSDAMHGTILFGAVDHSKYTGTLYTIPIVNTLSASGFSSPIQFDVTINGIGISDSGSSNKTLTTTKIPALLDSGTTLTYLPQTVVSMIATELGAQYSSRIGYYVLDCPSDDSMEIVFDFGGFHINAPLSSFILSTGTTCLLGIIPTSDDTGTILGDSFLTNAYVVYDLENLEISMAQARYNTTSENIEIITSSVPSAVKAPGYTNTWSTSASIVTGGNIFTVNSSQTASFSGNLTTSTASATSTSSKRN
# What was measured:
# [1] = biological target: T1, Mas-DH+Gly (42 amino acid precursor of …)
# Mas-DH[K22Q]+Gly = biological target: T2, Mas-DH[K22Q]+Gly
protein,measurement,setting,value
B1,"proteolytic fragments recovered from culture medium of protease deletion strains (RPLC, ESI-MS)",[1],"both Yap3 and Mkc7 are capable of contributing to the cleavage of Mas-DH+Gly at the Lys^22 residue, as well as at other sites"
same,"proteolytic fragments recovered from culture medium of the yap3 deletion strain HKY20[pKSC3] (RPLC, ESI-MS)",Mas-DH[K22Q]+Gly,suggesting that Mkc7 cleaved after Lys^25
B2,"proteolytic fragments recovered from culture medium of protease deletion strains (RPLC, ESI-MS)",[1],"both Yap3 and Mkc7 are capable of contributing to the cleavage of Mas-DH+Gly at the Lys^22 residue, as well as at other sites"
same,"proteolytic fragments recovered from culture medium of the mkc7 deletion strain HKY21[pKSC3] (RPLC, ESI-MS)",Mas-DH[K22Q]+Gly,suggesting that Yap3 cleaved after Arg at the two sites E R ↓ K V and L R ↓ Q K
